Experimental data from the DeepSol protein solubility set.

Experiment: soluble on expression in E. coli; label from the status in PepcDB or PDB records

For “MSLMAVNVNTNVAAMTAQRYLTGATNAQQTSMERLSSGFKINSAKDDAAGLQISNRLNVQSRGLDVAVRNANDGISIAQTAEGAMNETTNILQRMRDLSLQSANGSNSKSERVAIQEEITALNDELNRIAETTSFGGNKLLNGTFSTKSFQIGADNGEAVMLTLKDMRSDNRMMGGTSYVAAEGKDKDWKVQAGANDITFTLKDIDGNDQTITVNAKEGDDIEEVATYINGQTDMVKASVNEKGQLQIFAGNNKVTGDVAFSGGLAGALNMQAGTAETVDTIDVTSVGGAQQSVAVIDSALKYVDSHRAELGAFQNRFNHAISNLDNINENVNASKSRIKDTDFAKETTALTKSQILSQASSSVLAQAKQAPNAALSLLG”, which “soluble on expression in E. coli” value is on record?
The value was “soluble”.

With “MTTLFISDLHLDPARPAITELFLDFLRTQVPGSDALYILGDLFEAWIGDDTPSTAADAVAEALHAVATTGVPVFFMPGNRDFLVGAAYAQRAGFRILPDPTVIDLYGQPTLLMHGDLLCTDDTAYQAFRAQTRDPAFQAQFLSQPLAARVAFAQQARAASHARQSELKQGDQAQFETVTDVAPAEVDATFVRYGLDRIIHGHTHRPAIHTVQAGGRTCTRVVLGDWYEQGSVLRVDADGLALEQLALLEHHHHHH” as the sequence, how does the “soluble on expression in E. coli” value read?
Its value is “soluble”.

Which “soluble on expression in E. coli” value does the source give for “SDRAEVRNIPFKLGMYLTVGGVVNSNATRFSINVGESTDSIAMHMDHRFSYGADQNVLVLNSLVHNVGWQQEERSKKFPFTKGDHFQITITFDTHTFYIQLSNGETVEFPNRNKDAAFNLIYLAGDARLTFVRLE” here?
The value was “soluble”.

For “MFKKALFILSLCPSFALAQSYVVYDFTHNRVLESHASDSIQPIASVTKLMTANVFLENNKNPNCRIAITKEDTDRIKGTGTKLPKNIPISCNELLKAMLVHSDNYAAHALSRAAGISRRQFIKKMNEKAHQLGMYSTRFHDSSGLSSYNISSPMDLVKLAKYSLNKSDIKRLSNLSATYIQAGKQKLYIKNTNKLVRDEIFDAAVNKTGYIQESGYNLVFINKHRCKNATIGVISLNNTSSAYRSSFTKSKLEKFGCTALNGRTIRDVAGEAQYEDGYDEVGFNTLIQKLSK”, which “soluble on expression in E. coli” value is on record?
The value was “not soluble”.

With “AYPHIFGNLGVFSLASWFSERDFLRFLNHHPLDKNSKVFIQVGTKEGDAVDDEFAPNMNQAYIDCTLHYYQSLLRTGHPMEHIDLHIMANEIHHEKYWANHFIEFLKFTLK” as the sequence, how does the “soluble on expression in E. coli” value read?
Its value is “not soluble”.

Which “soluble on expression in E. coli” value does the source give for “MLIISNAVHLPDHEIELNAIRAQGAGGQNVNKVSSAVHLRFDIQASSLPPFYKERLLALNDQRISGDGVVVIKAQQYRTQEQNREDALERLAELIRSVAKVQKARRPTKPTRGSQKRRLDGKAKRGAVKAGRGKVDFLEHHHHHH” here?
The value was “not soluble”.

Which “soluble on expression in E. coli” value does the source give for “GSSHHHHHHMLKIGSHVSMSGKKMLLAASEEAVSYGATTFMIYTGAPQNTRRKPIEELNIEAGRKHMEQNGIEEIIIHAPYIINVGNTTKPETFQLGVDFLRMEIERTSALGVAKQIVLHPGAHVGAGADAGIQQIIKGLNEVLTPDQTVNIALETMAGKGTECGRSFEEIAKIIDGVKYNEKLSVCFDTCHTHDAGYDIVNNFDGVLNEFDKIVGIDRLQVLHINDSKNVRGAGKDRHENIGFGHIGYKALHHIVHHPQLTHVPKILETPYVGEDKKDKKPPYKLEIEMLKNGTFDEGLLEKIKAQ” here?
The value was “soluble”.

For “MSLSQNNPLRALLDKQDILLLDGAMATELEARGCNLADSLWSAKVLVENPELIREVHLDYYRAGAQCAITASYQATPAGFAARGLDEAQSKALIGKSVELARKAREAYLAENPQAGTLLVAGSVGPYGAYLADGSEYRGDYHCSVEAFQAFHRPRVEALLDAGADLLACETLPNFSEIEALAELLTAYPRARAWFSFTLRDSEHLSDGTPLRDVVALLAGYPQVVALGINCIALENTTAALQHLHGLTVLPLVVYPNSGEHYDAVSKTWHHHGEHCAQLADYLPQWQAAGARLIGGCCRTTPADIAALKARSEGGSHHHHHH”, which “soluble on expression in E. coli” value is on record?
Its value is “soluble”.

With “MPRQRRQGIVYDVREQGTARLIFDENRTKFDGVLETISGETMLVRGRVTSPTDLASTSATTDGSIVMDIDVVDGEEGSAFHVTGVKVLVDEHYAAIDSTAIKFEALDRLIGMKAAVEIQQHISPEIAYDSKEVFIGKMQIHLLTSHRPSPSSRRESVCAENNDIKILEVSDDFLA” as the sequence, how does the “soluble on expression in E. coli” value read?
The value was “not soluble”.

With “MSLKIAILYREEREKEGEFLKEKISKEHEVIEFGEANAPGRVTADLIVVVGGDGTVLKAAKKAADGTPMVGFKAGRLGFLTSYTLDEIDRFLEDLRNWNFREETRWFIQIESELGNHLALNDVTLERDLSGKMVEIEVEVEHHSSMWFFADGVVISTPTGSTAYSLSIGGPIIFPECEVLEISPIAPQFFLTRSVVIPSNFKVVVESQRDINMLVDGVLTGKTKRIEVKKSRRYVRILRPPEYDYVTVIRDKLGYGRRIEEGGSHHHHHH” as the sequence, how does the “soluble on expression in E. coli” value read?
The value was “soluble”.

With “MAHHHHHHMPEPLEETFSRVLSAKVARAKRVFGGDINETYRLEMEKDDVVYFLKLQRGTTADFYAAESLGLSLLSDVARTPRVVQTGEVNGDAYLIMTWIQSFPSAMRGGVRRNMAELGRMVAIVHRQTSPNGQFGSSVAVPLAGCKTSAGWSKDWATYYIESLLAPQVALARRKGYWSDRREAMFVAFSKRFCAFYASKKNVQPSLLHGDLWGGNVMYGESGEPYLIDPSSYYGHREVDIAMTRLFGGFGSEFYTAYEGEMPLEAGHASRVPWYQLLPLLCHLNLFGEAYGSSVDSAMAHVL” as the sequence, how does the “soluble on expression in E. coli” value read?
Its value is “not soluble”.

Which “soluble on expression in E. coli” value does the source give for “MATANEHLVAWLRDAHAMEEQAITMLTSQSSRLENYPELKTRIDRHLQETKDQAAMLERCLERLDGGTSSIKDISGKIVAFGQGLSGLFVSDEVVKGTLASYTFEHMEIASYRILIAAAEQAGDQETKRVCESILQQEIAMAEWLAQNAGEITRKFLERDQRDVTAKH” here?
The value was “not soluble”.

For “AHHHHHHGSKIATIVGARPQFIKMAPVSRELRKYFEEVVIHTGQHYDYEMDRIFFEQLNIPEPDYNLGVGSGSHGYQIGEMLKKIEEVLIKEKPDLVMVFGDTNSTLAGALAAAKLKIKVAHVEAGLRSFDKSMPEEINRILTDHVSDYLFAPTETAVKNLYNEGIRNGVYLTGDVMLDALLYNVKIAERCSEILNKLGLKPKEFCLATVHRAENTDNLERLKNIIDAFVECKETIVFPVHPRTEKVLKAYGLYDSLKKAENVILIKPVGYLDMLMLEKNAKKILTDSGGVQKEAYFLKVPCITLRERTEWVETVEDGWNVLVGADKEKILRAVREFEPSGETYTYKFGDGRASEKIAEVIKNVDR”, which “soluble on expression in E. coli” value is on record?
Its value is “not soluble”.

For “PTVLAVTDEELTIRFVSPAIERVLGYDMESLVGTNWLDLVHPADTDRVLATLTGEREDDGTEYRFRNADGDWVWLETIVSSDTE”, which “soluble on expression in E. coli” value is on record?
Its value is “not soluble”.

With “FSNKRVLVEKEGEAGIAVMKFKNPPVNSLSLEFLTEFVISLEKLENDKSIRGVILTSERPGIFSAGLDLMEMYGRNPAHYAEYWKAVQELWLRLYLSNLTLISAINGASPAGGCLMALTCDYRIMADNSKYTIGLNESLLGIVAPFWLKDNYVNTIGHRAAERALQLGTLFPPAEALKVGLVDEVVPEDQVHSKARSVMAKWFTIPDHSRQLTKSMMRKATADNLIKQREADIQNFTSFISRDSIQKSLHVYLEKLKQKKG” as the sequence, how does the “soluble on expression in E. coli” value read?
Its value is “soluble”.

For “MTDDKDVLRDVWFGRIPTCFTLYQDEITEREAEPYYLLLPRVSYLTLVTDKVKKHFQKVMRQEDVSEIWFEYEGTPLKWHYPIGLLFDLLASSSALPWNITVHFKSFPEKDLLHCPCKDAVEAHFMSCVKEADALKHKSQVINEMQRKDHKQLWMGLQNDLTSFGPSTGNSWNTLQKKMDFVISLLEYIRPQLNGLSFRSCSVLWPQMDSCIPLEIS”, which “soluble on expression in E. coli” value is on record?
Its value is “not soluble”.

For “MGSDKIHHHHHHMTSVSPHKKAKALKPTSRRPAKELCSECGLCDTYYIHYVKEACAFINQQIGELEVETHTRSRHLDNPDELYFGVHQDMIAARKQQPIEGAQWTGIVSSIAIEMLNRGLVEGVVCVQNTKEDRFQPMPIIARTPEEILAARVNKPTLSPNLSVLEQIEKSGMKRLLVIGVGCQIQALRAVEKQLGLEKLYVLGTPCVDNVNRAGLQKFLETTSRSPETVVHYEFMQDFRVHFKHEDGSSETVPFFGLKTNKLKDVFAPSCMSCFDYVNSLADLVVGYMGAPFGWQWIVVRNDTGKEMLDLVQDQLDTQPVTSKGNRKEAVQQSIPAYDKGVTLPMWAAKLMGVVIEKIGPKGLEYARFSIDSHFTRNYLYVKRNHPEKLEAHVPEFAKRIVEQYKLPE”, which “soluble on expression in E. coli” value is on record?
Its value is “not soluble”.

For “MAMSFEWPWQYRFPPFFTLQPNVDTRQKQLAAWCSLVLSFCRLHKQSSMTVMEAQESPLFNNVKLQRKLPVESIQIVLEELRKKGNLEWLDKSKSSFLIMWRRPEEWGKLIYQWVSRSGQNNSVFTLYELTNGEDTEDEEFHGLDEATLLRALQALQQEHKAEIITVSDGRGVKFF”, which “soluble on expression in E. coli” value is on record?
The value was “soluble”.

Which “soluble on expression in E. coli” value does the source give for “YPFYAQYNYDSPREATGKIVCANCHLAKKTVEIEVPQAVLPDTVFKAVVKVPYDLDIQQVQADGSPSGLNVGAVLMLPEGFKLAPPERVDEELMEEVGDFYYLVTPYSETDENILLAGPLPGEDYQEMIFPILSPNPATDAGVYFGKYSIHLGGNRGRGQVYPTGELSNNNAFSASIAGTIAAIEDNGFGFDVTIQPEDGDAVVTSILPGPELIVAVGDTVEAGQLLTTNPNVGGFGQMDSEIVLQSSS” here?
Its value is “soluble”.

For “MGSDKIHHHHHHMISEYEDIGLHNTCSEDGSFDVVLDSITNIAKYGMGIIAGVFIDMYSIIGNTDSKTIYTVRKGTLADYNARIIARSISGQVINTDPDTVVKMAEEGHMGLVGNEVQVGISYAEFAERLGIYAASCLIAARDQSFRSVLDQYQKGIEFIARNPEVSAEIISRKSNYYDEKTMKRIIGIYRHRLTTLRSDLERSISVYSAVEPSVYRLKILG”, which “soluble on expression in E. coli” value is on record?
Its value is “not soluble”.

For “MGSDKIHHHHHHMDKAKLIDLIKTNPNALVYIPNPSDELKLLAVQKNGLALKHIEHPTPEMQELALANNSRAIQFIDNPTEEMMNKAIQDSWVNLEYLQHPSETIIKLAITQAGWAIKYVKHPSEELQLLAVRRHYDSIKFIKDPCPKAQEEAVRINYDALRYIDSPTPQAELLAIRNHESAIAFVKDLSKEKILQFLGVNFLVIKYVRNDITKAELEQVLKETLGQEDVDEKYVRDFLNSSTIHKNSGQMSLDKIMFIYHYGSRKAKKVAVDEKLKI”, which “soluble on expression in E. coli” value is on record?
Its value is “not soluble”.

With “MARATTKQDLIMASNGQFEKLWVLIDGMSDDLQNATFADQMATAGKEAHWGRDKNLRDVLVHLYEWHQLLLNWINSNSKGERKPFLPEPYNWKTYSVMNVEFWKKHQQTPLAEAKDKLKESHRQVMALIETFSNDELFAKGVFDWTDTSTLGAYCVSATSSHYDWAMKKIKLHIKTGK” as the sequence, how does the “soluble on expression in E. coli” value read?
The value was “not soluble”.

For “MGSDKIHHHHHHMIVTEHSTRPLGEEGLANYVQRLRGQLSLTQKELSFKAGIHIQTIRKIEGGQTNRLNQKAKGGLAAALGIPPEYLDAAAKKVSPETITTLKFCPKCWTPGTTPDQMWTDLRSKYCFACGTALRNRCVSCNEPIMSLKFKFCPYCGANYKQNQTTS”, which “soluble on expression in E. coli” value is on record?
The value was “not soluble”.

For “LQKVFDNTVVQNSDIKKFNESKLIKPNLMQEHALKSLESLRNVGEEKGLIISATGTGKTILCALDVRAYSPDKFLFIVHNEGILNRAIEEFKKVFPYEDESNFGLLTGKRKDHDAKFLFATIQTLSKKENYKLFNSNHFDYIVFDEAHRIAASSYQKIFNYFKPNFLLGMTATPERTDELNIFE”, which “soluble on expression in E. coli” value is on record?
The value was “not soluble”.
